Read-outs that look alike come from different tables or passages of the source. Square brackets hold non-standard residues; d marks the D form. Ends that are not written are not given here. * marks the point of attachment. Phe(3,4-Cl2) = N[C@@H](Cc1ccc(Cl)c(Cl)c1)C(=O)O; Propanoyl(3-(3-pyridyl)) = O=C(CCc1cccnc1)*; Phe(4-NH2) = Nc1ccc(C[C@H](N)C(=O)O)cc1; Arg(Me) = CNC(=N)NCCC[C@H](N)C(=O)O; Bta = N[C@@H](Cc1csc2ccccc12)C(=O)O; 4Pal = N[C@@H](Cc1ccncc1)C(=O)O; d4Pal = N[C@H](Cc1ccncc1)C(=O)O; Cha = N[C@@H](CC1CCCCC1)C(=O)O; Abu = CC[C@H](N)C(=O)O; azaGly = NNC(=O)O
Assays:
[1] = target: human OT7T175 (metastin receptor) (human) (UniProt Q969F8); experiment: FMAT competition with Cy-5-labeled metastin (40-54), hOT7T175-expressed CHO cells
[2] = target: T1, human OT7T175 (metastin receptor) (human, UniProt Q969F8 1-398); experiment: as above
T1 construct: expressed on CHO cells (hOT7T175-expressed CHO cells; hOT7T175/CHO); also called hOT7T175; h0T7T175

[3] = target: T1, human OT7T175 (metastin receptor); experiment: cell-based or functional assay
[4] = target: T1, human OT7T175 (metastin receptor); experiment: cell-based or functional assay; remark: listed apart in the source
[5] = target: T1, human OT7T175 (metastin receptor); experiment: cell-based or functional assay; remark: listed apart in the source
[6] = target: T1, human OT7T175 (metastin receptor); experiment: cell-based or functional assay; remark: listed apart in the source

T1 sequence (Q969F8 whole entry L364H): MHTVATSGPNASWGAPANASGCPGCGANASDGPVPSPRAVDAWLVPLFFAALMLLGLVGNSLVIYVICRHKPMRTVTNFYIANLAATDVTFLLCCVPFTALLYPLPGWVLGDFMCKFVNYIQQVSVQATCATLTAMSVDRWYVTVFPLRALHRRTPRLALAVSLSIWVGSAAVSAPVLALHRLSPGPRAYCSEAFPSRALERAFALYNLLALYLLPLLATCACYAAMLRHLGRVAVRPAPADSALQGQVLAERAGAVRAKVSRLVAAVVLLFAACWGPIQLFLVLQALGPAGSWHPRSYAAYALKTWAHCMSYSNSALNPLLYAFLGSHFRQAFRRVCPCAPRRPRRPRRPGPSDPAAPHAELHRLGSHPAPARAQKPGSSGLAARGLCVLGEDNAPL
Chain of human OT7T175 (metastin receptor) (human) (Q969F8 whole entry L364H): as above

Molecule: Compound No. 238: [D-Tyr1,D-Asn2,D-Trp3,AzaGly7,Arg(Me)9]MS10 (peptide)
- IC50 [1]: 49 nM

Molecule: YNWNSFGLR[Phe(3,4-Cl2)]-NH2 [Compound No. 199: [Phe(3,4Cl2)10]MS10]
- IC50 [2]: 470 nM
- intracellular Ca ion level-increasing activity (FLIPR) [3]: 3 specific activity to metastin (1-54)

Molecule: YNWNSFGLR[Phe(4-NH2)]-NH2 [Compound No. 131: [Phe(4NH2)10]MS10]
- IC50 [2]: 120 nM
- intracellular Ca ion level-increasing activity (FLIPR) [3]: 3 specific activity to metastin (1-54)

Molecule: [dY]N[4Pal]NSF[azaGly]L[Arg(Me)]F-NH2 [Compound No. 286: [D-Tyr1,Pya(4) 3,AzaGly7,Arg(Me)9]MS10]
- intracellular Ca ion level-increasing activity (FLIPR) [4]: 2 specific activity to metastin (1-54)
- IC50 [2]: 17 nM
- cell growth inhibition activity, IC50 [5]: 18.3 nM

B1: Compound No. 190: [D-Tyr1,Cha3,AzaGly7,Arg(Me)9]MS10 (peptide)
peptide: [dY]N[Cha]NSF[azaGly]L[Arg(Me)]F-NH2
modifications: N-terminus assumed
SMILES: CNC(=N)NCCC[C@H](NC(=O)[C@H](CC(C)C)NC(=O)NNC(=O)[C@H](Cc1ccccc1)NC(=O)[C@H](CO)NC(=O)[C@H](CC(N)=O)NC(=O)[C@H](CC1CCCCC1)NC(=O)[C@H](CC(N)=O)NC(=O)[C@H](N)Cc1ccc(O)cc1)C(=O)N[C@@H](Cc1ccccc1)C(N)=O
- IC50 [2]: 12 nM
- intracellular Ca ion level-increasing activity (FLIPR) [3]: 10 specific activity to metastin (1-54)

Molecule: YNWNSFGLRX (Nal(1)10; C-terminal amide) [Compound No. 133: [Nal(1)10]MS10]
- IC50 [2]: 330 nM
- intracellular Ca ion level-increasing activity (FLIPR) [3]: 3 specific activity to metastin (1-54)

Molecule: [dY]NWNSFGL[Arg(Me)]F-NH2 [Compound No. 141: [D-Tyr1,Arg(Me)9]MS10]
- cell growth inhibition activity, IC50 [5]: 87 nM

B2: Compound No. 171: [D-Tyr1,Cha3,Arg(Me)9]MS10 (peptide)
peptide: [dY]N[Cha]NSFGL[Arg(Me)]F-NH2
modifications: N-terminus assumed
SMILES: CNC(=N)NCCC[C@H](NC(=O)[C@H](CC(C)C)NC(=O)CNC(=O)[C@H](Cc1ccccc1)NC(=O)[C@H](CO)NC(=O)[C@H](CC(N)=O)NC(=O)[C@H](CC1CCCCC1)NC(=O)[C@H](CC(N)=O)NC(=O)[C@H](N)Cc1ccc(O)cc1)C(=O)N[C@@H](Cc1ccccc1)C(N)=O
- IC50 [2]: 110 nM
- intracellular Ca ion level-increasing activity (FLIPR) [3]: 10 specific activity to metastin (1-54)

Molecule: YNWNSXGLRF (Cha6; C-terminal amide) [Compound No. 156: [Cha6]MS10]
- IC50 [2]: 49 nM
- intracellular Ca ion level-increasing activity (FLIPR) [3]: 2 specific activity to metastin (1-54)

B3: Compound No. 322: des(1-3)-3-Pyridylpropionyl-[AzaGly7,Arg(Me)9]MS10 (peptide)
peptide: {Propanoyl(3-(3-pyridyl))}-NSF[azaGly]L[Arg(Me)]F-NH2
SMILES: CNC(=N)NCCC[C@H](NC(=O)[C@H](CC(C)C)NC(=O)NNC(=O)[C@H](Cc1ccccc1)NC(=O)[C@H](CO)NC(=O)[C@H](CC(N)=O)NC(=O)CCc1cccnc1)C(=O)N[C@@H](Cc1ccccc1)C(N)=O
notes: also called KiSS322; KiSS1-322
- IC50 [2]: 54 nM
- cell growth inhibition activity, IC50 [5]: 71.9 nM
- intracellular Ca ion level-increasing activity (FLIPR) [6]: 1 specific activity to metastin (1-54)

Molecule: [dY][dN][4Pal]NSF[azaGly]L[Arg(Me)]F-NH2 [Compound No. 303: [D-Tyr1,D-Asn2,Pya(4) 3,AzaGly7,Arg(Me)9]MS10]
- IC50 [2]: 0.5 nM
- cell growth inhibition activity, IC50 [5]: 41.2 nM
- intracellular Ca ion level-increasing activity (FLIPR) [6]: 5 specific activity to metastin (1-54)

Molecule: YN[dW]NSFGL[Arg(Me)]F-NH2 [Compound No. 143: [D-Trp3,Arg(Me)9]MS10]
- IC50 [2]: 7.7 nM
- intracellular Ca ion level-increasing activity (FLIPR) [3]: 3 specific activity to metastin (1-54)

B4: Compound No. 182: [D-Tyr1,Cha3,6,Arg(Me)9,Trp10]MS10 (peptide)
peptide: [dY]N[Cha]NS[Cha]GL[Arg(Me)]W-NH2
modifications: N-terminus assumed
SMILES: CNC(=N)NCCC[C@H](NC(=O)[C@H](CC(C)C)NC(=O)CNC(=O)[C@H](CC1CCCCC1)NC(=O)[C@H](CO)NC(=O)[C@H](CC(N)=O)NC(=O)[C@H](CC1CCCCC1)NC(=O)[C@H](CC(N)=O)NC(=O)[C@H](N)Cc1ccc(O)cc1)C(=O)N[C@@H](Cc1c[nH]c2ccccc12)C(N)=O
- IC50 [2]: 98 nM
- intracellular Ca ion level-increasing activity (FLIPR) [3]: 5 specific activity to metastin (1-54)

Molecule: YNWNSXGLRF (Nal(1)6; C-terminal amide) [Compound No. 151: [Nal(1)6]MS10]
- IC50 [2]: 300 nM
- intracellular Ca ion level-increasing activity (FLIPR) [3]: 1 specific activity to metastin (1-54)

Molecule: YNWNSXGLRF (Nal(2)6; C-terminal amide) [Compound No. 152: [Nal(2)6]MS10]
- IC50 [2]: 180 nM
- intracellular Ca ion level-increasing activity (FLIPR) [3]: 5 specific activity to metastin (1-54)

B5: Compound No. 189: [Ala(3-Bzt)10]MS10 (peptide)
peptide: YNWNSFGLR[Bta]-NH2
modifications: N-terminus assumed
SMILES: CC(C)C[C@H](NC(=O)CNC(=O)[C@H](Cc1ccccc1)NC(=O)[C@H](CO)NC(=O)[C@H](CC(N)=O)NC(=O)[C@H](Cc1c[nH]c2ccccc12)NC(=O)[C@H](CC(N)=O)NC(=O)[C@@H](N)Cc1ccc(O)cc1)C(=O)N[C@@H](CCCNC(=N)N)C(=O)N[C@@H](Cc1csc2ccccc12)C(N)=O
- IC50 [2]: 230 nM
- intracellular Ca ion level-increasing activity (FLIPR) [3]: 10 specific activity to metastin (1-54)

B6: Compound No. 187: [Abu8]MS10 (peptide)
peptide: YNWNSFG[Abu]RF-NH2
modifications: N-terminus assumed
SMILES: CC[C@H](NC(=O)CNC(=O)[C@H](Cc1ccccc1)NC(=O)[C@H](CO)NC(=O)[C@H](CC(N)=O)NC(=O)[C@H](Cc1c[nH]c2ccccc12)NC(=O)[C@H](CC(N)=O)NC(=O)[C@@H](N)Cc1ccc(O)cc1)C(=O)N[C@@H](CCCNC(=N)N)C(=O)N[C@@H](Cc1ccccc1)C(N)=O
- IC50 [2]: 720 nM
- intracellular Ca ion level-increasing activity (FLIPR) [3]: 1 specific activity to metastin (1-54)

B7: Compound No. 305: des(1)-[D-Tyr2,D-Pya(4) 3,AzaGly7,Arg(Me)9]MS10 (peptide)
peptide: [dY][d4Pal]NSF[azaGly]L[Arg(Me)]F-NH2
modifications: N-terminus assumed
SMILES: CNC(=N)NCCC[C@H](NC(=O)[C@H](CC(C)C)NC(=O)NNC(=O)[C@H](Cc1ccccc1)NC(=O)[C@H](CO)NC(=O)[C@H](CC(N)=O)NC(=O)[C@@H](Cc1ccncc1)NC(=O)[C@H](N)Cc1ccc(O)cc1)C(=O)N[C@@H](Cc1ccccc1)C(N)=O
notes: also called KiSS305; KiSS1-305
- IC50 [2]: 1.3 nM
- cell growth inhibition activity, IC50 [5]: 8.94 nM
- intracellular Ca ion level-increasing activity (FLIPR) [6]: 5 specific activity to metastin (1-54)

From patent publication US20060241051A1 (Takeda / Millennium, published 2006)
